What all share (test): Tox-Luc (ToxR-TM-MBP) TM domain dimerisation assay in E. coli, luciferase read-out
The target in test [1] is Y145L/T150L (YT/LL) mutated mouse CD28 TM domain in the ToxLuc construct (ToxR-TM-MBP). As to conditions: read off a plot.
Test [2] concerns the target mutant GpA (G83I) TM domain in the ToxLuc construct (ToxR-TM-MBP). The following applies: parent: est. 5500; read off a plot.
For test [3], the target named is YT/LL mutated human CD28 TM domain in the ToxLuc construct (ToxR-TM-MBP). As to conditions: parent: est. 23000; read off a plot.

For “WT mouse CD28 TM domain in the ToxLuc construct (ToxR-TM-MBP) Y145L; T150L”, the response (Relative Light units) in test [1] (parent: est. 2500) stood at 270; in test [1] (parent: est. 19000), 3100.

Consider “wild type (WT) GpA TM domain in the ToxLuc construct (ToxR-TM-MBP) G83I”, for which, in test [2], the response (Relative Light units) is 700.

As to “WT human CD28 TM domain in the ToxLuc construct (ToxR-TM-MBP) YT/LL”, in test [3], the response (Relative Light units) came to 2900.

For the origin of these results see paper PMC7378745.
